# Square brackets hold non-standard residues; d marks the D form. dOrn = NCCC[C@@H](N)C(=O)O; Dab = NCC[C@H](N)C(=O)O; Dap = NC[C@H](N)C(=O)O
# B1: D84(Lys1-6Lys-1) (peptide)
# peptide: Ac-[dK][dL][dK][dS][dL][dL][dK][dT][dL][dS][dK][dA][dK][dA][dA][dK][dL][dK][dT][dL][dL][dK][dA][dL][dS][dK]-NH2
# SMILES: CC(=O)N[C@H](CCCCN)C(=O)N[C@H](CC(C)C)C(=O)N[C@H](CCCCN)C(=O)N[C@H](CO)C(=O)N[C@H](CC(C)C)C(=O)N[C@H](CC(C)C)C(=O)N[C@H](CCCCN)C(=O)N[C@@H](C(=O)N[C@H](CC(C)C)C(=O)N[C@H](CO)C(=O)N[C@H](CCCCN)C(=O)N[C@H](C)C(=O)N[C@H](CCCCN)C(=O)N[C@H](C)C(=O)N[C@H](C)C(=O)N[C@H](CCCCN)C(=O)N[C@H](CC(C)C)C(=O)N[C@H](CCCCN)C(=O)N[C@@H](C(=O)N[C@H](CC(C)C)C(=O)N[C@H](CC(C)C)C(=O)N[C@H](CCCCN)C(=O)N[C@H](C)C(=O)N[C@H](CC(C)C)C(=O)N[C@H](CO)C(=O)N[C@H](CCCCN)C(N)=O)[C@H](C)O)[C@H](C)O
# notes: Designed 26-residue AMP; Lys at 3, 7, 11, 18, 22, 26; Lys13/Lys16 specificity determinants; also called D84(6 Lys-1); D84-6 Lys-1
# B2: D85(Lys1-6Orn-1) (peptide)
# peptide: Ac-[dK][dL][dOrn][dS][dL][dL][dOrn][dT][dL][dS][dOrn][dA][dK][dA][dA][dK][dL][dOrn][dT][dL][dL][dOrn][dA][dL][dS][dOrn]-NH2
# SMILES: CC(=O)N[C@H](CCCCN)C(=O)N[C@H](CC(C)C)C(=O)N[C@H](CCCN)C(=O)N[C@H](CO)C(=O)N[C@H](CC(C)C)C(=O)N[C@H](CC(C)C)C(=O)N[C@H](CCCN)C(=O)N[C@@H](C(=O)N[C@H](CC(C)C)C(=O)N[C@H](CO)C(=O)N[C@H](CCCN)C(=O)N[C@H](C)C(=O)N[C@H](CCCCN)C(=O)N[C@H](C)C(=O)N[C@H](C)C(=O)N[C@H](CCCCN)C(=O)N[C@H](CC(C)C)C(=O)N[C@H](CCCN)C(=O)N[C@@H](C(=O)N[C@H](CC(C)C)C(=O)N[C@H](CC(C)C)C(=O)N[C@H](CCCN)C(=O)N[C@H](C)C(=O)N[C@H](CC(C)C)C(=O)N[C@H](CO)C(=O)N[C@H](CCCN)C(N)=O)[C@H](C)O)[C@H](C)O
# notes: Designed 26-residue AMP; also called D85(6Orn-1)
# B3: D105(Lys1-6Dap-1) (peptide)
# peptide: Ac-[dK][dL][Dap][dS][dL][dL][Dap][dT][dL][dS][Dap][dA][dK][dA][dA][dK][dL][Dap][dT][dL][dL][Dap][dA][dL][dS][Dap]-NH2
# SMILES: CC(=O)N[C@H](CCCCN)C(=O)N[C@H](CC(C)C)C(=O)N[C@@H](CN)C(=O)N[C@H](CO)C(=O)N[C@H](CC(C)C)C(=O)N[C@H](CC(C)C)C(=O)N[C@@H](CN)C(=O)N[C@@H](C(=O)N[C@H](CC(C)C)C(=O)N[C@H](CO)C(=O)N[C@@H](CN)C(=O)N[C@H](C)C(=O)N[C@H](CCCCN)C(=O)N[C@H](C)C(=O)N[C@H](C)C(=O)N[C@H](CCCCN)C(=O)N[C@H](CC(C)C)C(=O)N[C@@H](CN)C(=O)N[C@@H](C(=O)N[C@H](CC(C)C)C(=O)N[C@H](CC(C)C)C(=O)N[C@@H](CN)C(=O)N[C@H](C)C(=O)N[C@H](CC(C)C)C(=O)N[C@H](CO)C(=O)N[C@@H](CN)C(N)=O)[C@H](C)O)[C@H](C)O
# notes: Designed 26-residue AMP; Lys13/Lys16 specificity determinants; also called D105(6Dap-1); D105-6 Dap-1
# B4: D87(Lys1-6Arg-1) (peptide)
# peptide: Ac-[dK][dL][dR][dS][dL][dL][dR][dT][dL][dS][dR][dA][dK][dA][dA][dK][dL][dR][dT][dL][dL][dR][dA][dL][dS][dR]-NH2
# SMILES: CC(=O)N[C@H](CCCCN)C(=O)N[C@H](CC(C)C)C(=O)N[C@H](CCCNC(=N)N)C(=O)N[C@H](CO)C(=O)N[C@H](CC(C)C)C(=O)N[C@H](CC(C)C)C(=O)N[C@H](CCCNC(=N)N)C(=O)N[C@@H](C(=O)N[C@H](CC(C)C)C(=O)N[C@H](CO)C(=O)N[C@H](CCCNC(=N)N)C(=O)N[C@H](C)C(=O)N[C@H](CCCCN)C(=O)N[C@H](C)C(=O)N[C@H](C)C(=O)N[C@H](CCCCN)C(=O)N[C@H](CC(C)C)C(=O)N[C@H](CCCNC(=N)N)C(=O)N[C@@H](C(=O)N[C@H](CC(C)C)C(=O)N[C@H](CC(C)C)C(=O)N[C@H](CCCNC(=N)N)C(=O)N[C@H](C)C(=O)N[C@H](CC(C)C)C(=O)N[C@H](CO)C(=O)N[C@H](CCCNC(=N)N)C(N)=O)[C@H](C)O)[C@H](C)O
# notes: De novo designed 26-residue amphipathic alpha-helical antimicrobial peptide; Arg at 3, 7, 11, 18, 22, 26; Lys13/Lys16 specificity determinants; also called D87(6Arg-1); D87-6 Arg-1
# B5: D86(K13A/K16A)-(Lys1-6Dab-1) (peptide)
# peptide: Ac-[dK][dL][Dab][dS][dL][dL][Dab][dT][dL][dS][Dab][dA][dA][dA][dA][dA][dL][Dab][dT][dL][dL][Dab][dA][dL][dS][Dab]-NH2
# SMILES: CC(=O)N[C@H](CCCCN)C(=O)N[C@H](CC(C)C)C(=O)N[C@@H](CCN)C(=O)N[C@H](CO)C(=O)N[C@H](CC(C)C)C(=O)N[C@H](CC(C)C)C(=O)N[C@@H](CCN)C(=O)N[C@@H](C(=O)N[C@H](CC(C)C)C(=O)N[C@H](CO)C(=O)N[C@@H](CCN)C(=O)N[C@H](C)C(=O)N[C@H](C)C(=O)N[C@H](C)C(=O)N[C@H](C)C(=O)N[C@H](C)C(=O)N[C@H](CC(C)C)C(=O)N[C@@H](CCN)C(=O)N[C@@H](C(=O)N[C@H](CC(C)C)C(=O)N[C@H](CC(C)C)C(=O)N[C@@H](CCN)C(=O)N[C@H](C)C(=O)N[C@H](CC(C)C)C(=O)N[C@H](CO)C(=O)N[C@@H](CCN)C(N)=O)[C@H](C)O)[C@H](C)O
# notes: Control AMP without specificity determinants (Ala13/Ala16); also called D86(A13/A16-6Dab-1); D86(K13A/K16A-6 Dab-1)
# B6: D86(Lys1-6Dab-1) (peptide)
# peptide: Ac-[dK][dL][Dab][dS][dL][dL][Dab][dT][dL][dS][Dab][dA][dK][dA][dA][dK][dL][Dab][dT][dL][dL][Dab][dA][dL][dS][Dab]-NH2
# modifications: not fully specified
# notes: Designed 26-residue AMP; Lys13/Lys16 specificity determinants; also called D86(6 Dab-1); D86-6 Dab-1
# B7: D85(K13A/K16A)-(Lys1-6Orn-1) (peptide)
# peptide: Ac-[dK][dL][dOrn][dS][dL][dL][dOrn][dT][dL][dS][dOrn][dA][dA][dA][dA][dA][dL][dOrn][dT][dL][dL][dOrn][dA][dL][dS][dOrn]-NH2
# SMILES: CC(=O)N[C@H](CCCCN)C(=O)N[C@H](CC(C)C)C(=O)N[C@H](CCCN)C(=O)N[C@H](CO)C(=O)N[C@H](CC(C)C)C(=O)N[C@H](CC(C)C)C(=O)N[C@H](CCCN)C(=O)N[C@@H](C(=O)N[C@H](CC(C)C)C(=O)N[C@H](CO)C(=O)N[C@H](CCCN)C(=O)N[C@H](C)C(=O)N[C@H](C)C(=O)N[C@H](C)C(=O)N[C@H](C)C(=O)N[C@H](C)C(=O)N[C@H](CC(C)C)C(=O)N[C@H](CCCN)C(=O)N[C@@H](C(=O)N[C@H](CC(C)C)C(=O)N[C@H](CC(C)C)C(=O)N[C@H](CCCN)C(=O)N[C@H](C)C(=O)N[C@H](CC(C)C)C(=O)N[C@H](CO)C(=O)N[C@H](CCCN)C(N)=O)[C@H](C)O)[C@H](C)O
# notes: Control AMP without specificity determinants (Ala13/Ala16); also called D85(A13/A16-6Orn-1); D85(K13A/K16A-6 Orn-1)
# B8: D105(K13A/K16A)-(Lys1-6Dap-1) (peptide)
# peptide: Ac-[dK][dL][Dap][dS][dL][dL][Dap][dT][dL][dS][Dap][dA][dA][dA][dA][dA][dL][Dap][dT][dL][dL][Dap][dA][dL][dS][Dap]-NH2
# SMILES: CC(=O)N[C@H](CCCCN)C(=O)N[C@H](CC(C)C)C(=O)N[C@@H](CN)C(=O)N[C@H](CO)C(=O)N[C@H](CC(C)C)C(=O)N[C@H](CC(C)C)C(=O)N[C@@H](CN)C(=O)N[C@@H](C(=O)N[C@H](CC(C)C)C(=O)N[C@H](CO)C(=O)N[C@@H](CN)C(=O)N[C@H](C)C(=O)N[C@H](C)C(=O)N[C@H](C)C(=O)N[C@H](C)C(=O)N[C@H](C)C(=O)N[C@H](CC(C)C)C(=O)N[C@@H](CN)C(=O)N[C@@H](C(=O)N[C@H](CC(C)C)C(=O)N[C@H](CC(C)C)C(=O)N[C@@H](CN)C(=O)N[C@H](C)C(=O)N[C@H](CC(C)C)C(=O)N[C@H](CO)C(=O)N[C@@H](CN)C(N)=O)[C@H](C)O)[C@H](C)O
# notes: Control AMP without specificity determinants (Ala13/Ala16); also called D105(A13/A16-6Dap-1); D105(K13A/K16A-6 Dap-1)
# Columns and labels:
# [1] = tested on: Acinetobacter baumannii strains resistant to Polymyxin B and Colistin; details: results provided by MERCK, cited from earlier work
# [2] = tested on: A. baumannii strains from JMI Laboratories; details: 20 A. baumannii isolates from JMI Laboratories; cited from earlier work
# [3] = target: serum proteins; test: cell-based or functional assay
# [4] = target: the molecule itself; test: RP-HPLC temperature profiling, self-association (dimerization/oligomerization) against random coil control RC
molecule,measurement,setting,value
Colistin,MICGM,[1]; geometric mean over seven strains,>28 µM
same,MIC MB9941,[1]; strain MB9941,>28 µM
same,MIC MB9949,[1]; strain MB9949,>28 µM
same,MIC MB9951,[1]; strain MB9951,>28 µM
same,MIC MB9952,[1]; strain MB9952,>28 µM
same,MIC MB9953,[1]; strain MB9953,>28 µM
same,MIC MB9955,[1]; strain MB9955,>28 µM
same,MIC MB9963,[1]; strain MB9963,>28 µM
same,number of resistant isolates out of the number of isolates screened,[2],10/20
Gentamicin,number of resistant isolates out of the number of isolates screened,[2],18/20
Piperacillin-tazobactam,number of resistant isolates out of the number of isolates screened,[2],19/20
B1,MIC (µM) against A. baumannii strain 649 in 25% human serum (no serum: 0.3),[3],0.3 µM
same,PA (self-association parameter),[4],5.9 min
B2,MIC (µM) against A. baumannii strain 649 in 25% human serum (no serum: 0.4),[3],0.2 µM
same,PA (self-association parameter),[4],4.1 min
B3,MIC (µM) against A. baumannii strain 649 in 25% human serum (no serum: 0.8),[3],3 µM
same,fold change of MIC in 25% human sera against no serum,[3],4 fold
same,PA (self-association parameter),[4],3.7 min
B4,MIC (µM) against A. baumannii strain 649 in 25% human serum (no serum: 0.7),[3],1.3 µM
same,PA (self-association parameter),[4],5.9 min
B5,MIC (µM) against A. baumannii strain 649 in 25% human serum (no serum: 0.8),[3],3 µM
same,fold loss of antimicrobial activity in 25% human sera,[3],4 fold
same,PA (self-association parameter),[4],12.5 min
B6,MIC (µM) against A. baumannii strain 649 in 25% human serum (no serum: 0.7),[3],0.2 µM
same,PA (self-association parameter),[4],0 min
B7,PA (self-association parameter),[4],28 min
B8,MIC (µM) against A. baumannii strain 649 in 25% human serum (no serum: 0.8),[3],12.5 µM
same,fold loss of antimicrobial activity in 25% human sera,[3],15 fold
same,PA (self-association parameter),[4],18 min
